This data set deals with the molecule itself. As to the kind of experiment: negative-stain electron microscopy; 0.2 mg/mL, incubated 30 min at 37 °C in 20 mM Tris-HCl pH 7.5, 100 mM NaCl, 1 mM EDTA; 1% uranyl acetate; preparations from cortex, from nucleus and from Sigma; 12–14 nm particles used for 3D reconstruction.

B1: native α-crystallin from bovine eye lens (complex)
chain 1: MDIAIQHPWFKRTLGPFYPSRLFDQFFGEGLFEYDLLPFLSSTISPYYRQSLFRTVLDSGISEVRSDRDKFVIFLDVKHFSPEDLTVKVQEDFVEIHGKHNERQDDHGYISREFHRRYRLPSNVDQSALSCSLSADGMLTFSGPKIPSGVDAGHSERAIPVSREEKPSSAPSS
chain 2: MDIAIHHPWIRRPFFPFHSPSRLFDQFFGEHLLESDLFPASTSLSPFYLRPPSFLRAPSWIDTGLSEMRLEKDRFSVNLDVKHFSPEELKVKVLGDVIEVHGKHEERQDEHGFISREFHRKYRIPADVDPLAITSSLSSDGVLTVNGPRKQASGPERTIPITREEKPAVTAAPKK
notes: αA-crystallin (HSPB4), bovine, isolated from eye lens as part of native α-crystallin; αB-crystallin (HSPB5), bovine, isolated from eye lens as part of native α-crystallin; Hetero-oligomeric mixture of αA- and αB-crystallin that was not separated; The number of subunits and the αA:αB ratio were not measured here (3:1 and about 42 monomers are cited); also called natural α-crystallin; authentic …
Regarding B1, the binding result is recorded as “binds”.
